Assay [1] has as its target T1, recombinant IAg7 (rIAg7; RTL450), single polypeptide comprising the β1 and α1 domains of the MHC class II … (mouse).
T1 construct: no peptide attached; Internal C17-C79 disulfide bond; also called empty rIAg7; rIA7
T1 chain: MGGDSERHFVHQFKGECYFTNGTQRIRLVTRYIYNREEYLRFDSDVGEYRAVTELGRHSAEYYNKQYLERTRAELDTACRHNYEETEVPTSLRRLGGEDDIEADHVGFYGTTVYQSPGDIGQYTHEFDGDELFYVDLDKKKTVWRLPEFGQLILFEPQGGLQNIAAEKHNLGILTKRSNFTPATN
In words: disulfide capture of FITC-labeled peptides, SDS-PAGE.

In assay [2] the target is T1, recombinant IAg7 (rIAg7; RTL450), …. In words: disulfide capture, Coomassie stained SDS-PAGE. The method, then: (§1) A mixture of 10:1 peptide:rIAg7 at 200 μg/ml, 100 mM NaPO₄ pH 6.5; 150 mM NaCl; 0.05% SDS; and 0.01% NaN₃ was produced. After inspecting the mixture for any precipitation, reactions were incubated at 37° C. for 60 hours. Analysis of ability of redox capture conditions to facilitate peptide capture by MHC was performed as follows: 20 μl aliquots at various time points were mixed with an equal volume of 2× electrophoresis sample buffer (1% glycerol, 500 mM Tris, 0.2% SDS, and bromophenol blue at pH 8.0). Samples were then placed on ice for 30 minutes, heated at 90° C. for 6 minutes with or without β-mercaptoethanol and separated by 10-20% SDS-PAGE followed by Coomassie Blue staining to visualize the proteins. Proteins were quantified by densitometry scanning using Molecular Imager FX 5 and Quantity One software (Bio-Rad, Hercules, Calif.).
A recombinant form of IAg7 (rIAg7) comprising the β1 and α1 domains of the MHC class II molecule expressed as a single polypeptide (rIAg7; RTL450-series) was designed. IAg7-derived constructs are readily produced in E. coli, are well-behaved in aqueous buffers, and bind antigenic peptides. All MHC class II β1 domains comprise a disulfide bond between cysteine 17 and cysteine 79. Insulin B:9-23 is an antigenic peptide that binds IAg7 and comprises a cysteine residue at position 19. […]

For assay [3], the target named is T2, recombinant human DR2 (β1α1 RTL) (human).
T2 construct: Single-chain two-domain MHC class II polypeptide, with no peptide attached before loading; also called rDR2; DR2 RTL
T2 chain: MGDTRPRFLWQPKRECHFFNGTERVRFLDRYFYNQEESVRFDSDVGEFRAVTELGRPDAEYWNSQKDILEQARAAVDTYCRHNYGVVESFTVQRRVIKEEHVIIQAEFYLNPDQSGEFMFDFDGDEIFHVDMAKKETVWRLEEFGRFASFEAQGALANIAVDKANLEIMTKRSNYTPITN
In words: disulfide capture, SDS-PAGE.

The target in assay [4] is T3, recombinant murine I-A^b (β1α1 RTL) (mouse).
T3 construct: Single-chain two-domain MHC class II polypeptide, with no peptide attached before loading; also called rI-A^b RTL; rIAb
T3 chain: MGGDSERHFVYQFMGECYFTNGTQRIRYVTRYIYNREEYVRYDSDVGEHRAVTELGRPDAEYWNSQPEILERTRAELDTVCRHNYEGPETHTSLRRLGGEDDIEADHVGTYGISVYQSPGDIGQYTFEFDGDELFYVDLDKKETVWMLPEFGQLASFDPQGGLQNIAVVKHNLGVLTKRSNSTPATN
In words: disulfide capture, SDS-PAGE.

Assay [5] addresses T1, recombinant IAg7 (rIAg7; RTL450), …. In words: disulfide capture of amino-terminal truncated peptides, SDS-PAGE. The method, then: as §1
Coomassie stained bands (29 kD and 31 kD, as indicated) were quantified to determine an initial rate of capture (FIG. 3). Insulin B:16-23 peptide (FITC-[…]; SEQ ID NO: 1) and rIAg7 were mixed (10:1, peptide:rIAg7) in 100 mM NaPO₄, pH 6.5, 150 mM NaCl, 0.05% SDS, and 0.01% NaN₃ and allowed to incubate for the indicated time.

Primed or numbered codes have the meaning given here. Ends that are not written are not given here. FITC′ = fluorescein isothiocyanate label

B1: FITC-labeled insulin B:9-23 peptide, wild-type sequence (C19) (peptide)
peptide: {FITC′}-SHLVEALYLVCGERG
notes: also called Wild-type insulin B:9-23 peptide (C19); amino-terminal FITC-coupled B:9-23
As for B1, in assay [1], the binding result is recorded as “binds”.

B2: insulin B:9-23 peptide (peptide)
peptide: SHLVEALYLVCGERG
notes: Synthetic peptide; also called Insulin B:9-23 (WT); InsB:9-23
For B2, the binding result in assay [2] is “binds”.

Turning to MEVGWYRSCFSRVVHLYRNGK (also called hMOG35-55 P43C variant) [MOG35-55 P43C variant], the binding result in assay [3] is “binds”. As to MEVGWYRCPFSRVVHLYRNGK (also called hMOG35-55 S42C variant) [MOG35-55 S42C variant], in assay [3], the binding result is listed as “binds”.

B3: S45C mutated mouse MOG35-55 (peptide)
peptide: MEVGWYRPPFCRVVHLYRNGK
notes: also called mMOG35-55 S45C variant; mouse MOG35-55 S45C variant
Take B3: the binding result in assay [4] is listed as “binds”.

With {FITC′}-SHLVEALYLVACERG [FITC-labeled insulin B:9-23 C20 variant (cysteine moved to position 20)], the binding result in assay [1] is recorded as “binds”.

On to {FITC′}-YLVCGERG (The C-terminal 8 amino acids of B:9-23) [FITC-labeled 8-mer insulin B:16-23 peptide], for which the binding result in assay [5] was “binds”.

Consider {FITC′}-SHLVEALYLCAGERG [FITC-labeled insulin B:9-23 C18 variant (cysteine moved to position 18)], for which the binding result in assay [1] is on record as “binds”.

Source of the values: patent US20130171179A1 (OREGON HEALTH AND SCIENCE UNIVERSITY, published 2013).
